Columns and labels:
Assay type in all cases: biochemical
[1] = ATPase assay of HpMutS2 and mutants (TLC, ATP [γ-32P] tracer); details: for kcat value, fold reduced compared to the wild-type protein / V max / k cat: ATP hydrolysis; for V max / k cat: Mg2+ 5 mM, 37 °C, Michaelis-Menten analysis; for Km value, fold higher compared to the wild-type protein: for ATP; for effect of DNA on ATPase activity: 1 μM
Excerpt: Fig. 1 a Schematic representation of HpMutS2 variants used in this study. Walker-A and Walker-B motifs of HpMutS2 were identified by multiple sequence alignment of MutS2 proteins from different bacteria using Clustal Omega (http://www.ebi.ac.uk/Tools/msa/clustalo/). The mutations in the walker-A and Walker-B motifs were introduced using site directed mutagenesis. The mutated amino acids are highlighted in red. All the proteins were C-terminally His6-tagged. The LDLK motif and Smr domain are conserved nuclease sites of HpMutS2. b Effect of DNA substrates on ATPase activity of HpMutS2. HpMutS2 (45 nM) was incubated with increasing concentrations of ATP [0, 10, 20, 40, 60, 80, 100, 200, 400, 600, 800, and 1000 (μM)]. DNA substrates (1 μM) were added separately to the reaction mixtures. After incubation at 37 °C for 30 min the reactions were stopped by EDTA (50 mM) and the products were separated by TLC. ATP [γ-^32P] was used as tracer to monitor the product formation. Reaction velocities were calculated by quantifying the proportion of products formed to un-reacted substrate divided by incubation time TEXT PRINTED IN THE PICTURE: (A) HpMutS2 (1-762): Mol. wt. (kDa): 87.8 | (A) HpMutS2-G338R (1-762): Mol. wt. (kDa): 87.9 | (A) HpMutS2-E413A (1-762): Mol. wt. (kDa): 87.7 | (A) HpMutS2ΔSmr (1-683): Mol. wt. (kDa): 79.3 | (A) HpMutS2ΔSmr-D30A (1-683): Mol. wt. (kDa): 79.2 | (A) HpSmr (684-762): Mol. wt. (kDa): 9.6
To delineate the characteristics of the ATPase activity of HpMutS2, we initially determined the metal ion requirement for ATP hydrolysis by HpMutS2. Purified HpMutS2 was incubated with excess of cold ATP (100 μM) with or without metal ions (5 mM each), and ATP hydrolysis monitored by thin layer chromatography using radiolabeled ATP [γ-^32P] as tracer. […] Based on the above observations, all subsequent ATPase assays were performed in presence of Mg^2+ (5 mM) at 37 °C using the protein concentrations in the linear range of enzymatic activity for 30 min or below.
ATPase activity of HpMutS2 and mutants was carried out in 10 μl of reaction volume containing 1X buffer A (50 mM Tris pH 8.0, 50 mM NaCl, and 1 mM DTT) containing MgCl2 (5 mM), and ATP [γ-^32P] was used as a tracer. A 1:1000 dilution of 25 μC ATP [γ-^32P] (3500 Ci/mmol) was used with indicated amount of the cold ATP in all the assays. All reactions were carried out at 37 °C for indicated time and terminated by the addition of EDTA (50 mM). 1 μl aliquot of each reaction mixture was spotted on a polyethylene cellulose TLC sheets. The reaction components [ATP and inorganic phosphate (Pi)] were separated by thin layer chromatography (TLC) using 0.4 M […] and 0.1 mM EDTA as mobile phase. The dried TLC sheets were visualized by phosphorimaging and quantified using Image Gauge (Version 3.0). The kinetic parameters were determined using the Michaelis–Menten equation by non-linear regression of plot of rate of product formation versus substrate concentration using GraphPad Prism 5 software. Reaction velocities were calculated by quantifying the proportion of products formed to un-reacted substrate divided by incubation time. To determine the effect of DNA on ATPase activity 1 μM of DNA substrates were added separately to the reaction mixture.

Holliday junction = test: Nuclease assay (urea-PAGE); details: for DNA cleavage rate: No nucleotide, DNA 1 nM, protein 150 nM, 37 °C
Procedure: (§1) Fig. 6 Effect of nucleotide cofactors on nuclease activity of HpMutS2 and mutants. Plots showing time dependent depletion of substrate DNA (a, b, c) Single-stranded DNA and d, e, f Holliday junction. DNA substrates (1 nM) were incubated with HpMutS2 and mutants (150 nM) at 37 °C. Reactions aliquots were removed at 0, 15, 30, 60, 90, and 120 min. The reactions were stopped using (50 mM EDTA + formamide dye) and the products were electrophoresed on urea-PAGE (15 %). The percentage reduction in substrate was calculated by considering DNA without protein as 100 %. Error bars represent standard deviation from two or more different experiments. (g, panel 1–6) Time dependent cleavage of Holliday junction by HpMutS2 and mutants. Reactions were performed as described in (A-F). Reactions aliquots were removed at 0, 15, 30, 60, 90, and 120 min
(§2) Radiolabeled DNA substrates were incubated with HpMutS2 and mutants in buffer D (50 mM Tris pH 8.0, 50 mM NaCl, 1 mM DTT, and 5 mM MgCl2). ATP, ADP, and ATPγS (1 mM each) were added separately to the reaction mixtures. 20 μl reaction aliquots were reomoved at 0, 15, 30, 60, 90, and 120 min. Reactions were stopped by adding EDTA (50 mM) + formammide dye (98 % formamide, 0.1 % bromophenol blue and 0.1 % xylene cyanol). The DNA substrates were denatured at 95 °C for 15 min and the reaction mixtures were separated on denaturing polyacrylamide gel (15 %) containing urea (7 M). The results were visualized and analysed as described earlier. DNA cleavage rates were estimated by dividing the total product formed (pM) in linear range of enzymatic activity by corresponding incubation time (min).

Single-stranded DNA = test: Nuclease assay (urea-PAGE); details: for DNA cleavage rate: No nucleotide, DNA 1 nM, protein 150 nM, 37 °C
Procedure: as §1, §2

[2] = comparison with literature value

Row | Molecule | kcat value, fold reduced compared to the wild-type protein [1] | V max [1] [µM/min] | k cat [1] [s⁻¹] | Km value, fold higher compared to the wild-type protein [1] | DNA cleavage rate (Holliday junction) [pM/min] | fold reduced nuclease activity compared to wild-type (Holliday junction; no nucleotide) | DNA cleavage rate (Single-stranded DNA) [pM/min] | fold reduced nuclease activity compared to wild-type (Single-stranded DNA; no nucleotide) | effect of DNA on ATPase activity ([1]; 3′- or 5′-overhangs) | Km value, fold higher compared to T. thermophilus MutS1 [1, 2] | Km value, fold higher compared to Thermus thermophilus MutS2 (TtMutS2) [1, 2] | kcat value, fold higher compared to T. thermophilus MutS1 [1, 2] | kcat value, fold higher compared to Thermus thermophilus MutS2 (TtMutS2) [1, 2] | effect of DNA on ATPase activity ([1]; linear DNA substrates ssDNA, dsDNA) | fold reduction of Holliday junction cleavage rate by ADP (Holliday junction; ADP 1 mM vs no nucleotide) | fold reduction of Holliday junction cleavage activity in presence of ADP compared to ATP (Holliday junction; ADP vs ATP, 1 mM) | fold stimulation of Holliday junction cleavage rate by ATP (Holliday junction; ATP 1 mM vs no nucleotide) | fold reduced nuclease activity in presence of ATPγS (Holliday junction; ATPγS 1 mM vs no nucleotide) | fold elevated nuclease activity compared to wild-type (Holliday junction; no nucleotide) | fold elevated nuclease activity compared to wild-type (Single-stranded DNA; no nucleotide)
1 | HpMutS2-E413A (enzyme, also called Walker-B mutant) MSDAPKRSLNPTLMMNNNNTPPKPLEESLDLKEFIALFKTFFAKERDTIALENDLKQTFTYLNEVDAIGLPTPKSVKESDLIIIKLTKLGTLHLDEIFEIVKRLHYIVVLQNAFKTFTHLKFHERLNAIVLPPFFNDLIALFDDEGKIKQGANATLDALNESLNRLKKESVKIIHHYARSKELAPYLVDTQSHLKHGYECLLLKSGFSGAIKGVVLERSANGYFYLLPESAQKIAQKIAQIGNEIDCCIVEMCQTLSHSLQKHLLFLKFLFKEFDFLDSLQARLNFAKAYNLEFVMPSFTQKKMILENFSHPILKEPKPLNLKFEKSMLAVTGVNAGGKTMLLKSLLSAAFLSKHLIPMKINAHHSIIPYFKEIHAIINDPQNSANNISTFAGRMKQFSALLSKENMLLGVDAIELGTDADEASSLYKTLLEKLLKQNNQIIITTHHKRLSVLMAENKEVELLAALYDEEKERPTYTFLKGVIGKSYAFETALRYGVPHFLIEKAKTFYGEDKEKLNVLIENSSALERELKQKNEHLENALKEQEYLKNAWLLEMEKQKEIFHNKKLELEKSYQQALNILKSEVASKDTSSMHKEIHKASEILSKHKTNQEIPQIITNFQANEKARYKNESVLIVQILDKGYYWIETELGMRLKAHGSLLKKIQKPPKNKFKPPKTTIPKPKEASLRLDLRGQRSEEALDLLDAFLNDALLGGFEEVLICHGKGSGILEKFVKEFLKNHPKVVSFSDAPINLGGSGVKIVKL | ~ 10 fold | 0.19 ± 0.03 | 0.0703 ± 0.011 | comparable | 4.92 ± 1.25 | ~ 4 fold | 6.50 ± 0.55 | ~ 4 fold | – | – | – | – | – | – | – | – | – | – | – | –
2 | HpMutS2: Helicobacter pylori MutS2 (1-762), C-terminally His6-tagged wild-type protein, nuclease and ABC ATPase (protein, left off: His6, C-terminal, state not stated, Helicobacter pylori MutS2 (1-762), C-terminally His6-tagged wild-type protein, nuclease and ABC ATPase) MSDAPKRSLNPTLMMNNNNTPPKPLEESLDLKEFIALFKTFFAKERDTIALENDLKQTFTYLNEVDAIGLPTPKSVKESDLIIIKLTKLGTLHLDEIFEIVKRLHYIVVLQNAFKTFTHLKFHERLNAIVLPPFFNDLIALFDDEGKIKQGANATLDALNESLNRLKKESVKIIHHYARSKELAPYLVDTQSHLKHGYECLLLKSGFSGAIKGVVLERSANGYFYLLPESAQKIAQKIAQIGNEIDCCIVEMCQTLSHSLQKHLLFLKFLFKEFDFLDSLQARLNFAKAYNLEFVMPSFTQKKMILENFSHPILKEPKPLNLKFEKSMLAVTGVNAGGKTMLLKSLLSAAFLSKHLIPMKINAHHSIIPYFKEIHAIINDPQNSANNISTFAGRMKQFSALLSKENMLLGVDEIELGTDADEASSLYKTLLEKLLKQNNQIIITTHHKRLSVLMAENKEVELLAALYDEEKERPTYTFLKGVIGKSYAFETALRYGVPHFLIEKAKTFYGEDKEKLNVLIENSSALERELKQKNEHLENALKEQEYLKNAWLLEMEKQKEIFHNKKLELEKSYQQALNILKSEVASKDTSSMHKEIHKASEILSKHKTNQEIPQIITNFQANEKARYKNESVLIVQILDKGYYWIETELGMRLKAHGSLLKKIQKPPKNKFKPPKTTIPKPKEASLRLDLRGQRSEEALDLLDAFLNDALLGGFEEVLICHGKGSGILEKFVKEFLKNHPKVVSFSDAPINLGGSGVKIVKL | – | 1.88 ± 0.13 | 0.6962 ± 0.048 | – | 26.49 ± 3.95 | – | 24.82 ± 1.15 | – | negligible increases | ~ 8 fold | ~ 9 fold | ~ 4.5 fold | ~ 20 fold | no effect | ~ 1.5 fold | ~ 2.1 fold | ~ 1.5 fold | ~ 1.5 fold | – | –
3 | HpMutS2-G338R (protein) MSDAPKRSLNPTLMMNNNNTPPKPLEESLDLKEFIALFKTFFAKERDTIALENDLKQTFTYLNEVDAIGLPTPKSVKESDLIIIKLTKLGTLHLDEIFEIVKRLHYIVVLQNAFKTFTHLKFHERLNAIVLPPFFNDLIALFDDEGKIKQGANATLDALNESLNRLKKESVKIIHHYARSKELAPYLVDTQSHLKHGYECLLLKSGFSGAIKGVVLERSANGYFYLLPESAQKIAQKIAQIGNEIDCCIVEMCQTLSHSLQKHLLFLKFLFKEFDFLDSLQARLNFAKAYNLEFVMPSFTQKKMILENFSHPILKEPKPLNLKFEKSMLAVTGVNAGRKTMLLKSLLSAAFLSKHLIPMKINAHHSIIPYFKEIHAIINDPQNSANNISTFAGRMKQFSALLSKENMLLGVDEIELGTDADEASSLYKTLLEKLLKQNNQIIITTHHKRLSVLMAENKEVELLAALYDEEKERPTYTFLKGVIGKSYAFETALRYGVPHFLIEKAKTFYGEDKEKLNVLIENSSALERELKQKNEHLENALKEQEYLKNAWLLEMEKQKEIFHNKKLELEKSYQQALNILKSEVASKDTSSMHKEIHKASEILSKHKTNQEIPQIITNFQANEKARYKNESVLIVQILDKGYYWIETELGMRLKAHGSLLKKIQKPPKNKFKPPKTTIPKPKEASLRLDLRGQRSEEALDLLDAFLNDALLGGFEEVLICHGKGSGILEKFVKEFLKNHPKVVSFSDAPINLGGSGVKIVKL | ~ 3 fold | 0.64 ± 0.15 | 0.237 ± 0.0555 | ~ 2.3 fold | 41.59 ± 9.53 | – | 40.19 ± 8.73 | – | – | – | – | – | – | – | – | – | – | – | ~ 1.6 fold | ~ 1.6 fold
